Substrate in this data set: CCCCCCCCCCCCCCCC(=O)SCCNC(=O)CCNC(=O)[C@H](O)C(C)(C)COP(=O)(O)OP(=O)(O)OC[C@H]1O[C@@H](n2cnc3c(N)ncnc32)[C@H](O)[C@@H]1OP(=O)(O)O
Description: TEAD2 YBD autopalmitoylation kinetics, palmitoyl-CoA dose-dependency. In kind it is biochemical, human. To be noted: other: recombinant TEAD2 YBD, alkyne palmitoyl-CoA, 3 min (FIG. 2J); pH 6.4. As to the method: Intact mass spectrometry analysis of the recombinant TEAD2-YBD was carried out. The peak corresponding to unmodified TEAD2 at 26497 Dalton. A small side peak was also observed at 26736 Dalton (FIG. 2E), consistent with a palmitate modification to the protein. […] Moreover, autopalmitoylation of TEAD2 YBD was confirmed by acyl-biotin exchange (ABE) assay, which converts S-palmitoylation to stable biotinylation for detection (FIG. 2G). With 1 μM of palmitoyl-CoA at neutral pH, TEAD2 YBD was autopalmitoylated within 2 min, and the palmitoylation levels reached saturation after 10 min (FIG. 2H). To determine dose-dependency of palmitoyl-CoA, recombinant TEAD2 YBD was incubated with various concentrations of alkyne palmitoyl-CoA for 3 min, and the reaction rate was determined by quantifying the intensities of streptavidin blots (FIG. 2I). […] The physiological palmitoyl-CoA concentrations range from 100 nM to 10 μM in cells.
Recombinant GST-TEAD2 or His6TEAD2 (500 ng) protein was incubated with the indicated concentrations of alkyne palmitoyl-CoA (Cayman Chemical) for 2 h or the indicated time in 50 mM MES, pH 6.4. […] Samples were analyzed by SDS-PAGE and streptavidin HRP. Bands intensity obtained from streptavidin blot were quantified using Image J (NIH) and the rate of palmitoylation in arbitrary unit was plotted against the concentration of palmitoyl-CoA. […]

From US10696642B2, “TEAD transcription factor autopalmitoylation inhibitors” (The General Hospital Corporation, priority 2015, dated 2020) come the findings set out here.

B1: TEAD2 YBD (Homo sapiens) (protein)
chain: AWQARGLGTARLQLVEFSAFVEPPDAVDSYQRHLFVHISQHCPSPGAPPLESVDVRQIYDKFPEKKGGLRELYDRGPPHAFFLVKFWADLNWGPSGEEAGAGGSISSGGFYGVSSQYESLEHMTLTCSSKVCSFGKQVVEKVETERAQLEDGRFVYRLLRSPMCEYLVNFLHKLRQLPERYMMNSVLENFTILQVVTNRDTQELLLCTAYVFEVSTSERGAQHHIYRLVRD
notes: The cDNA encoding human TEAD2 (residues 217-447, TEAD2^217-447) was cloned into a pET29 vector; made in house; host or cells: E. coli BL21(DE3)-T1R
In general, Km refers to the concentration of substrate that gives half-maximal velocity. B1: the Km was 0.8 µM.
